Source: publication PMC5538626, “Structural and functional analysis of the GABARAP interaction motif (GIM)” (EMBO Reports, 2017)

How the values were obtained:
GFP-LC3B = assay: Co-immunoprecipitation of full-length PLEKHM1 LIR variants with GFP-LC3B; conditions: full-length PLEKHM1-Flag, Fig 4C
endogenous LC3B = assay: Co-immunoprecipitation of GFP-FUNDC1 with endogenous LC3B, HEK293 cells; format: cell-based; conditions: HEK293, non-stimulated (DMSO); Fig 5C left
Description: (§1) Blots were probed for the presence of endogenous GABARAP and LC3B proteins. • 3xFlag‐FIP200 WT, E703V, I705V, E703V/I705V and F702A/I705A were overexpressed in HEK293 cells and immunoprecipitated using anti‐Flag beads and subjected to SDS–PAGE and Western blotting. Blots were probed for the presence of endogenous GABARAP and LC3B proteins. • GFP‐FUNDC1 WT, E19V, L21V, E19V/L21V and Y18A/L21A were overexpressed in HEK293 cells and either treated with vehicle only (DMSO) or 20 μM CCCP for 2 h, lysed and GFP‐FUNDC1 immunoprecipitated using anti‐GFP beads (or anti‐RFP beads as control) and subjected to SDS–PAGE and Western blotting. Blots were probed for the presence of endogenous GABARAP and LC3B proteins.

endogenous GABARAP = assay: Co-immunoprecipitation of GFP-FUNDC1 with endogenous GABARAP, HEK293 cells; format: cell-based; conditions: HEK293, non-stimulated (DMSO); Fig 5C left
Description: as §1

Molecule | co-precipitation with GFP-LC3B (GFP-LC3B) | co-precipitation with GFP-LC3B (GFP-LC3B; listed as Plekhm1-WCIL) | interaction of FUNDC1 with endogenous LC3 (endogenous LC3B) | interaction of FUNDC1 with endogenous GABARAP (endogenous GABARAP)
PLEKHM1‐WCIL (full length): full-length PLEKHM1-Flag, variant LIR WVNV/WCIL (protein, left off: Flag, end not stated, kept) MLSVVENGLDPQAAIPVIKKKLVGSVKALQKQYVSLDTVVTSEDGDANTMCSALEAVFIHGLHAKHIRAEAGGKRKKSAHQKPLPQPVFWPLLKAVTHKHIISELEHLTFVNTDVGRCRAWLRLALNDGLMECYLKLLLQEQARLHEYYQPTALLRDAEEGEFLLSFLQGLTSLSFELSYKSAILNEWTLTPLALSGLCPLSELDPLSTSGAELQRKESLDSISHSSGSEDIEVHHSGHKIRRNQKLTASSLSLDTASSSQLSCSLNSDSCLLQENGSKSPDHCEEPMSCDSDLGTANAEDSDRSLQEVLLEFSKAQVNSVPTNGLSQETEIPTPQASLSLHGLNTSTYLHCEAPAEPLPAQAASGTQDGVHVQEPRPQAPSPLDLQQPVESTSGQQPSSTVSETAREVGQGNGLQKAQAHDGAGLKLVVSSPTSPKNKSWISEDDFYRPSREQPLESASDHPIASYRGTPGSRPGLHRHFSQEPRKNCSLGALDQACVPSPGRRQAQAAPSQGHKSFRVVHRRQMGLSNPFRGLMKLGTVERRGAMGIWKELFCELSPLEFRLYLSNEEHTCVENCSLLRCESVGPAHSDGRFELVFSGKKLALRASSQDEAEDWLDRVREALQKVRPQQEDEWCILQYPDQPEEPPEAPQGCLSPSDLLSEPAALQGTQFDWSSAQVPEPDAIKESLLYLYMDRTWMPYIFSLSLEALKCFRIRNNEKMLSDSHGVETIRDILPDTSLGGPSFFKIITAKAVLKLQAGNAEEAALWRDLVRKVLASYLETAEEAVTLGGSLDENCQEVLKFATRENGFLLQYLVAIPMEKGLDSQGCFCAGCSRQIGFSFVRPKLCAFSGLYYCDICHQDDASVIPARIIHNWDLTKRPICRQALKFLTQIRAQPLINLQMVNASLYEHVERMHLIGRRREQLKLLGDYLGLCRSGALKELSKRLNHRNYLLESPHRFSVADLQQIADGVYEGFLKALIEFASQHVYHCDLCTQRGFICQICQHHDIIFPFEFDTTVRCAECKTVFHQSCQAVVKKGCPRCARRRKYQEQNIFA | increased co‐precipitation with GFP‐LC3B | increased interaction |  | 
Plekhm1-mutLIR: full-length PLEKHM1-Flag, mutant LIR EDEWVNV/AAAAVNG (protein, left off: Flag, end not stated, kept) MLSVVENGLDPQAAIPVIKKKLVGSVKALQKQYVSLDTVVTSEDGDANTMCSALEAVFIHGLHAKHIRAEAGGKRKKSAHQKPLPQPVFWPLLKAVTHKHIISELEHLTFVNTDVGRCRAWLRLALNDGLMECYLKLLLQEQARLHEYYQPTALLRDAEEGEFLLSFLQGLTSLSFELSYKSAILNEWTLTPLALSGLCPLSELDPLSTSGAELQRKESLDSISHSSGSEDIEVHHSGHKIRRNQKLTASSLSLDTASSSQLSCSLNSDSCLLQENGSKSPDHCEEPMSCDSDLGTANAEDSDRSLQEVLLEFSKAQVNSVPTNGLSQETEIPTPQASLSLHGLNTSTYLHCEAPAEPLPAQAASGTQDGVHVQEPRPQAPSPLDLQQPVESTSGQQPSSTVSETAREVGQGNGLQKAQAHDGAGLKLVVSSPTSPKNKSWISEDDFYRPSREQPLESASDHPIASYRGTPGSRPGLHRHFSQEPRKNCSLGALDQACVPSPGRRQAQAAPSQGHKSFRVVHRRQMGLSNPFRGLMKLGTVERRGAMGIWKELFCELSPLEFRLYLSNEEHTCVENCSLLRCESVGPAHSDGRFELVFSGKKLALRASSQDEAEDWLDRVREALQKVRPQQAAAAVNGQYPDQPEEPPEAPQGCLSPSDLLSEPAALQGTQFDWSSAQVPEPDAIKESLLYLYMDRTWMPYIFSLSLEALKCFRIRNNEKMLSDSHGVETIRDILPDTSLGGPSFFKIITAKAVLKLQAGNAEEAALWRDLVRKVLASYLETAEEAVTLGGSLDENCQEVLKFATRENGFLLQYLVAIPMEKGLDSQGCFCAGCSRQIGFSFVRPKLCAFSGLYYCDICHQDDASVIPARIIHNWDLTKRPICRQALKFLTQIRAQPLINLQMVNASLYEHVERMHLIGRRREQLKLLGDYLGLCRSGALKELSKRLNHRNYLLESPHRFSVADLQQIADGVYEGFLKALIEFASQHVYHCDLCTQRGFICQICQHHDIIFPFEFDTTVRCAECKTVFHQSCQAVVKKGCPRCARRRKYQEQNIFA | decreased interaction |  |  | 
E19V: GFP-FUNDC1 E19V (protein, UniProt Q8IVP5 1-155, looked up, variant E19V, GFP tag) FUN14 domain-containing …: MATRNPPPQDYESDDDSYVVLDLTEYARRHQWWNRVFGHSSGPMVEKYSVATQIVMGGVTGWCAGFLFQKVGKLAATAVGGGFLLLQIASHSGYVQIDWKRVEKDVNKAKRQIKKRANKAAPEINNLIEEATEFIKQNIVISSGFVGGFLLGLAS |  |  | increased LC3 interaction | moderately enhanced
L21V: GFP-FUNDC1 L21V (protein, UniProt Q8IVP5 1-155, looked up, variant L21V, GFP tag) FUN14 domain-containing …: MATRNPPPQDYESDDDSYEVVDLTEYARRHQWWNRVFGHSSGPMVEKYSVATQIVMGGVTGWCAGFLFQKVGKLAATAVGGGFLLLQIASHSGYVQIDWKRVEKDVNKAKRQIKKRANKAAPEINNLIEEATEFIKQNIVISSGFVGGFLLGLAS |  |  | little effect | little effect
